Measurements published in patent US10376603B2, “Engineered fluorinated biomaterials” (New York University, priority 2015, dated 2019).

Key:
Assay type in all cases: physicochemical
[1] = Doxorubicin loading/encapsulation by gel filtration and absorbance at 485 nm; settings: 100 μM free doxorubicin, 4° C., 2 hours
Experimental: A mixture of 100 μM free doxorubicin (DOX) (see the extraction method below) and either CE2-RGD or CE2-RGD-TFL and standards (100 μM, 75 μM, 50 μM, 25 μM, 10 μM, 5 μM and 0 μM) were incubated at 4° C. for 2 hours in the dark. After this incubation period, the mixtures were subjected to G-25 Sephadex (Sigma-Aldrich) gel filtration chromatography with fifteen elutions of 50 mM Na2HPO4, 0.5 M NaCl, pH 8.0 at room temperature. The eluted fractions were subjected to absorbance readings ranging from 420-600 nm (Molecular Devices Spectramax M2). The eluted fraction with highest absorbance reading at 485 nm was incorporated in the standard curve trendline equation to determine the total concentration of DOX bound to the protein. That protein sample was also subjected to the BCA assay enhanced protocol to determine the total protein concentration.
Extraction of DOX from a doxorubicin-HCl (DOX-HCl) was required to achieve free hydrophobic doxorubicin for pore encapsulation. […] The final concentration of free DOX was determined by generating a standard curve from absorbance of DOX-HCl from 420-600 nm and incorporating the free DOX into the trendline equation. The absorbance measurement for free DOX concentration determination was taken at 485 nm.

[2] = Transmission electron microscopy of particles; settings: 0.5 mg/mL
Experimental: Transmission electron microscopy (TEM) experiments were undertaken to visualize and confirm particle sizes. The CE2-RGD-TFL (0.5 mg/mL) was heated to 20° C. or 50° C. for 1.5 hours followed by application of the protein onto copper square mesh TEM grids and 1% uranyl acetate negative staining. The TEM grids were imaged using a FEI Titan Halo 300 kV electron microscope.

[3] = Circular dichroism secondary structure
Experimental: Circular dichroism (CD) spectroscopy was used to confirm the secondary structure. This was accomplished using a Jasco J-815 CD spectrometer with a PTC-423 S single position Peltier temperature control system. For CD experiments assessing the protein structure alone, protein concentrations were kept constant at 0.200 mg/mL in of 50 mM Na2HPO4, 0.5 M NaCl, pH 8.0. The wavelength spectrum was measured over the range of 200-300 nm with a bandwidth (step size) of 1 nm. The scanning mode was continuous at 20 nm/minute. All wavelength CD runs were conducted at 4° C.
In terms of calculations for CD analysis, molar residue ellipticity (θMRE) was calculated from ellipticity (θ) using the following equation: (1) θMRE=θ/(10*Protein Conc.*Path Length*Length of Sequence)

[4] = Dynamic light scattering as a function of temperature; settings: doxorubicin loaded versus unloaded
Experimental: Dynamic light scattering (DLS) measurements were performed on a Zetasizer Nano Series model Nano ZS90 in a type 21 quartz cuvette with the applied settings: material protein (refractive index 1.450), absorption 0.001, dispersant PBS with a viscosity of 1.0200 cP and refractive index of 1.335. Measurements were taken in triplicates, conducting 10 runs for each measurement, with a delay time of 2 seconds. Approximately, 1.0 mL of 0.5, 0.75 or 1.0 mg/mL CE2-RGD-TFL or CE2-RGD in 50 mM Na2HPO4, 0.5 M NaCl, pH 8.0 was then added to the cell.

[5] = UV-Vis temperature transition (Tt) at 320 nm; settings: 50 mM Na2HPO4, 0.5 M NaCl, pH 8.0
Experimental: Proteins were characterized for their temperature transition (Tt) behavior at a wavelength of 320 nm using a UV-Vis Cary-50 (Varian Inc., Cary, N.C.) equipped with a TC125 temperature regulator (Quantum Northwest, Liberty Lake, Wash.). Samples were heated at a rate of 1° C./minute from 15° C. to 85° C. The Tt was determined by taking the first derivative of the normalized absorbance (320 nm) as a function of temperature.

B1: CE2-RGD-TFL: fluorinated protein block copolymer, SEQ ID NO:18: COMPcc domain flanked by RGD linkers plus elastin-like domain; all 11 leucines as 5,5,5-trifluoroleucine (protein)
chain: MRGSHHHHHHGSACELAARGDATATATATAACGDLAPQMLRELQETNAALQDVRELLRQQVKEITFLKNTVMESDASGLQAARGDATATATATAVDKPIAASAVPGVGVPGVGVPGFGVPGVGVPGVGVPGVGVPGVGVPGFGVPGVGVPGVGVPLEGSGTGAKLN
modifications: all leucines as 5,5,5-trifluoroleucine
notes: all 11 leucines as 5,5,5-trifluoroleucine
For B1, the “available doxorubicin encapsulated upon saturation” value [1] was 49.1%, the “doxorubicin loading per milligram of protein” value [1] was 29.90±2.68 μg per milligram and the “particle appearance (TEM)” value ([2]; 50° C. for 1.5 hours) was “amorphous aggregates of no discernible uniformity in size”. The “particle diameter (TEM)” value ([2]; 1.5 hour incubation at 20° C.) was 30 nm, the “secondary structure (circular dichroism) versus CE2-RGD” value ([3]; 0.200 mg/mL, 4° C.) was “less structure” and the “secondary structure (circular dichroism) upon loading of doxorubicin” value ([3]; doxorubicin loaded versus unloaded) was “increase in secondary structure”. For the same molecule, the “onset of temperature-driven coacervation (DLS) upon loading of doxorubicin” value [4] was “delay in the onset of temperature-driven coacervation”, the “Tt (transition temperature)” value ([5]; Conc. 0.20 mg/mL) was 52.04 ± 0.84 °C and the “Tt (transition temperature)” value ([5]; Conc. 0.50 mg/mL) was 47.87 ± 0.72 °C. For the same molecule, the “Tt (transition temperature)” value ([5]; Conc. 0.75 mg/mL) was 46.36 ± 0.03 °C and the “Tt (transition temperature)” value ([5]; Conc. 1.00 mg/mL) was 45.71 ± 0.51 °C.
